According to US20230110287A1:

Biological target: mouse (murine) NGF (mouse) (UniProt P01139)
Experiment: SPR, purified antibody, beta muNGF, 39 C

mouse (murine) NGF (mouse), sequence (P01139 122-241 limits assumed): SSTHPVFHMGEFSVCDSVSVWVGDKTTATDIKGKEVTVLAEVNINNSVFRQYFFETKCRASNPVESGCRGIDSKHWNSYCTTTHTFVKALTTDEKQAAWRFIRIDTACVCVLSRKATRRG

- Kd: 0.905 pM
- koff: 6.2e-06 s⁻¹
- kon: 6.86e+06 M⁻¹ s⁻¹
Substance: chimeric αD11 (rat αD11 variable regions fused to canine constant chain regions) (antibody)
